Measurements published in the Human Domainome abundance scans (Beltran et al. 2025).
± gives the uncertainty stated by the source.

B1: Triacylglycerol hydrolase DDHD2, residues 389 to 447; numbered along this chain, O94830 (parent)
chain: TLEEDLKKLQLSEFFDIFEKEKVDKEALALCTDRDLQEIGIPLGPRKKILNYFSTRKNS

Variants of: B1
Test: abundance fitness (aPCA) (normalised: wild type 0, dead -1); higher = more abundant; growth selection in yeast, the domain comes from the species named
Settings: Homo sapiens

Variant | abundance fitness
TLEEDLKKLQPSEFFDIFEKEKVDKEALALCTDRDLQEIGIPLGPRKKILNYFSTRKNS [L11P] | -1 ± 0.089
TLEEDLKKLQRSEFFDIFEKEKVDKEALALCTDRDLQEIGIPLGPRKKILNYFSTRKNS [L11R] | -0.996 ± 0.068
TLEEDLKKLQASEFFDIFEKEKVDKEALALCTDRDLQEIGIPLGPRKKILNYFSTRKNS [L11A] | -0.882 ± 0.098
TLEEDLKKLQLSEFFDIFEKEKVDKEALHLCTDRDLQEIGIPLGPRKKILNYFSTRKNS [A29H] | 0.06 ± 0.11
TLEEDLKKLQLSEFFDIFEKEKVDKEALILCTDRDLQEIGIPLGPRKKILNYFSTRKNS [A29I] | 0.012 ± 0.11
TLEEDLKKLQLSEFFDIFEKEKVDKEALALCTDRDLQEIGIPLGPRKKIRNYFSTRKNS [L50R] | -0.247 ± 0.06
TLEEDLKKLQLSEFFDIFEKEKVDKEALALCTDRDLQEIGIPLGPRKKIKNYFSTRKNS [L50K] | -0.218 ± 0.1
TLEEDLKKLQLSEFFDIFEKEKVDKEALALCTDRDLQEIGIPLGPRKKIDNYFSTRKNS [L50D] | 0.14 ± 0.11
TLEEDLYKLQLSEFFDIFEKEKVDKEALALCTDRDLQEIGIPLGPRKKILNYFSTRKNS [K7Y] | -0.006 ± 0.14
TLEEDLSKLQLSEFFDIFEKEKVDKEALALCTDRDLQEIGIPLGPRKKILNYFSTRKNS [K7S] | -0.08 ± 0.077
TFEEDLKKLQLSEFFDIFEKEKVDKEALALCTDRDLQEIGIPLGPRKKILNYFSTRKNS [L2F] | -0.269 ± 0.091
TYEEDLKKLQLSEFFDIFEKEKVDKEALALCTDRDLQEIGIPLGPRKKILNYFSTRKNS [L2Y] | -0.695 ± 0.13
TLEEDLKKLQLSEFFDIFENEKVDKEALALCTDRDLQEIGIPLGPRKKILNYFSTRKNS [K20N] | -0.142 ± 0.14
TLEEDLKKLQLSEFFDIFEAEKVDKEALALCTDRDLQEIGIPLGPRKKILNYFSTRKNS [K20A] | 0.07 ± 0.085
TLEEDLKKLQLSEFFDIFEKEGVDKEALALCTDRDLQEIGIPLGPRKKILNYFSTRKNS [K22G] | 0.455 ± 0.067
TLEEDLKKLQLSEFFDIFEKETVDKEALALCTDRDLQEIGIPLGPRKKILNYFSTRKNS [K22T] | -0.16 ± 0.094
TLEEDLKKLQLSEFFDIFEKENVDKEALALCTDRDLQEIGIPLGPRKKILNYFSTRKNS [K22N] | 0.381 ± 0.097
TLEEDLKKLQLSEFFDIFEKEKVDKEALALCTDRDLQEIGIPMGPRKKILNYFSTRKNS [L43M] | 0.298 ± 0.076
TLEEDLKKLQLSEFFDIFEKEKVDKEALALCTDRDLQEIGIPFGPRKKILNYFSTRKNS [L43F] | 0.313 ± 0.053
TLEEDLKKLQLSEFFDIFEKEKVDKEALALCTDRDLQEIGIPLGPRKKILNYFSTRKNV [S59V] | -0.153 ± 0.12
TLEEDLKKLQLSEFFDIFEKEKVDKEALALCTDRDLQEIGIPLGPRKHILNYFSTRKNS [K48H] | -0.213 ± 0.13
TLEEDLKKLQLSEFFDIFEKEKVDKEALALCTDRDLQEIGIPLGPRKMILNYFSTRKNS [K48M] | 0.146 ± 0.11
TLEEDLKKLQLSEFFDIFEKEKVDKEALALCTDRDLQEIGIPLGPRKCILNYFSTRKNS [K48C] | -0.408 ± 0.1

Variant | abundance fitness
TLEEDLKKLQLSEFFDIFEKEKVDKEALALCTDRDLQEIGIPLGPRKKILNYFSTRLNS [K57L] | -0.219 ± 0.071
TLEEDLKKLQLSEFFDIFEKEKVDKEGLALCTDRDLQEIGIPLGPRKKILNYFSTRKNS [A27G] | 0.316 ± 0.065
TLEEDLKKLQLSEFFDIFEKEKVDKEYLALCTDRDLQEIGIPLGPRKKILNYFSTRKNS [A27Y] | 0.6 ± 0.12
TLEEDLKKLQLSEFFDIFEKEKVDKEMLALCTDRDLQEIGIPLGPRKKILNYFSTRKNS [A27M] | 0.639 ± 0.094
TLEEDTKKLQLSEFFDIFEKEKVDKEALALCTDRDLQEIGIPLGPRKKILNYFSTRKNS [L6T] | -0.492 ± 0.11
TLEEDFKKLQLSEFFDIFEKEKVDKEALALCTDRDLQEIGIPLGPRKKILNYFSTRKNS [L6F] | 0.134 ± 0.23
TLEEDLKKLQLSEFFDIFEKEKVDKEALALCTDRDLQEIGIPLGPRKKILNYFLTRKNS [S54L] | -0.306 ± 0.069
TLEEDLKKLQLSEFFDIFEKEKVDKEALALCTDRDLQEIGIPLGPRKKILNYFTTRKNS [S54T] | -0.097 ± 0.078
TLEEDLKKLQLSEFFDIFEKEKVDKEALALCTDRDLQEIGIPLGPRKKILNYFHTRKNS [S54H] | -0.208 ± 0.14
TLEEDLKKLQLSMFFDIFEKEKVDKEALALCTDRDLQEIGIPLGPRKKILNYFSTRKNS [E13M] | -0.135 ± 0.17
TLEEDLKKLQLSEFFDIFEKEKVDKEALALCTDRDLQEIGIPLGPRKKILNYISTRKNS [F53I] | -0.085 ± 0.15
SLEEDLKKLQLSEFFDIFEKEKVDKEALALCTDRDLQEIGIPLGPRKKILNYFSTRKNS [T1S] | -0.232 ± 0.12
TLEEDLKKLQLSEFFDIFEKEKVDKEALALCMDRDLQEIGIPLGPRKKILNYFSTRKNS [T32M] | -0.299 ± 0.1
TLEEDLKKLQLSEFFDIFEKEKVDKEALALCQDRDLQEIGIPLGPRKKILNYFSTRKNS [T32Q] | -0.251 ± 0.12
TLEEDLKKLQLSEFFDIFEKEKVDKEALALCTDRDLQEIGIPLGPRKKILNYFSTRKYS [N58Y] | -0.08 ± 0.14
TLEEDLKKLQLSEFFDIFEKEKVDKEALALCTDRDLQEIGVPLGPRKKILNYFSTRKNS [I41V] | 0.003 ± 0.063
TLEEDLKKLQLSEFFDIFEKEKVDKEALALCTDRDLQEIGRPLGPRKKILNYFSTRKNS [I41R] | -0.289 ± 0.066
TLEEDLKKLQLSEFFDIFHKEKVDKEALALCTDRDLQEIGIPLGPRKKILNYFSTRKNS [E19H] | -0.024 ± 0.12
TLEEDLKKLQLSEFFDIFEKEKVDKEALALCTDRDLQEIGIPLGPRKKILNYFSQRKNS [T55Q] | 0.006 ± 0.11
TLEEDLKKLQLSEFFDIFEKEKVDKEALALCTDRDLQEIGIPLGPRKKILNYFSSRKNS [T55S] | -0.007 ± 0.067
TLEEDLKKLQLSEFFDIFEKEKVDKEALALCTDRDLQGIGIPLGPRKKILNYFSTRKNS [E38G] | -0.319 ± 0.074
TLEGDLKKLQLSEFFDIFEKEKVDKEALALCTDRDLQEIGIPLGPRKKILNYFSTRKNS [E4G] | -0.436 ± 0.074
